Assay results from paper PMC4896102, “Biosynthesis of the polymeric gel-forming mucin MUC5B” (American Journal of Physiology - Lung Cellular and …, 2016).

Target: the molecule itself
Assay: SEC-MALS; SEC-MALLS of purified CT5B, performed as described in ref. 18; light scattering and refractive index

B1: recombinant MUC5B COOH-terminus (CT5B; D4-B-C-CK) (domain or fragment, human, UniProt Q9HC84 4955-5762, looked up)
chain: GEVIYNKTDRAGCHFYAVCNQHCDIDRFQGACPTSPPPVSSAPLSSPSPAPGCDNAIPLRQVNETWTLENCTVARCVGDNRVVLLDPKPVANVTCVNKHLPIKVSDPSQPCDFHYECECICSMWGGSHYSTFDGTSYTFRGNCTYVLMREIHARFGNLSLYLDNHYCTASATAAAARCPRALSIHYKSMDIVLTVTMVHGKEEGLILFDQIPVSSGFSKNGVLVSVLGTTTMRVDIPALGVSVTFNGQVFQARLPYSLFHNNTEGQCGTCTNNQRDDCLQRDGTTAASCKDMAKTWLVPDSRKDGCWAPTGTPPTASPAAPVSSTPTPTPCPPQPLCDLMLSQVFAECHNLVPPGPFFNACISDHCRGRLEVPCQSLEAYAELCRARGVCSDWRGATGGLCDLTCPPTKVYKPCGPIQPATCNSRNQSPQLEGMAEGCFCPEDQILFNAHMGICVQACPCVGPDGFPKFPGERWVSNCQSCVCDEGSVSVQCKPLPCDAQGQPPPCNRPGFVTVTRPRAENPCCPETVCVCNTTTCPQSLPVCPPGQESICTQEEGDCCPTFRCRPQLCSYNGTFYGVGATFPGALPCHMCTCLSGDTQDPTVQCQEDACNNTTCPQGFEYKRVAGQCCGECVQTACLTPDGQPVQLNETWVNSHVDNCTVYLCEAEGGVHLLTPQPASCPDVSSCRGSLRKTGCCYSCEEDSCQVRINTTILWHQGCETEVNITFCEGSCPGASKYSAEAQAMQHQCTCCQERRVHEETVPLHCPNGSAILHTYTHVDECGCTPFCVPAPMAPPHTRGFPAQEATAV
modifications: N-glycans (removed by PNGase F; positions not stated)
notes: Present as a mixture of monomers and disulfide-stabilised dimers; the proportions varied between preparations; also called MUC5B COOH-terminal construct; COOH-terminal region of MUC5B
  stoichiometry N: 2
